Among the data in the supplement of paper PMC10567573 are protein stability index values, retold here.

The data set is described as follows: protein stability index of a GFP-peptide fusion (GPS, HEK-293T) (PSI 1-6); higher = more stable.
[1] abbreviates: treatment: DMSO, c terminus: a fixed tail appended.
The mark [2] stands for this setting: treatment: MLN4924 1 uM, 8 h, c terminus: a fixed tail appended.

± gives the standard deviation.
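Also: 24-mer peptide tiles fused after GFP, lentivirally expressed, FACS-sorted into six equal bins by GFP/DsRed ratio, decoded by Illumina sequencing, PSI is the read-weighted mean bin number.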

As to RLVVEFPATGGAIPSWQIRTVKLI [PKD2L1], the protein stability index was found to be 2.62 ± 0.53 under setting [1] and 2.16 ± 0.36 under setting [2].

As to RMDKRTLALLVLAHSSDVLENVFS [GOLPH3L], the protein stability index stood at 2.37 ± 0.53 under setting [1] and 2.22 ± 0.23 under setting [2].

Turning to RMRLFGQRCQKCSWSQYEMPEFSS [RTP4], the protein stability index by setting is: under setting [1], 2.42 ± 0.52; under setting [2], 2.2 ± 0.23.

For the sequence RMVPALPPKRMLGADREFIEARRR [SNX8], the protein stability index turned out to be 3.96 ± 0.29 under setting [1] and 4.17 ± 0.18 under setting [2].

Regarding RMYPFQIHSIALSTFASLIGPFGG [CDS2], the protein stability index came to 2.79 ± 0.33 under setting [1] and 2.61 ± 0.5 under setting [2].

As to RPHEVLLCSDLVKAYQRCVSAAHK [CHCHD6], the protein stability index stood at 2.64 ± 0.11 under setting [1] and 2.75 ± 0.61 under setting [2].

RPSSPRPQKASPNGSISSAGNSSR [BTBD10] yielded a protein stability index under setting [1] of 4.97 ± 0.21 and a protein stability index under setting [2] of 4.94 ± 0.3.

Turning to RPWRAGVLAEGDNASRSLYPDAED [PSD2], the protein stability index amounted to 5.16 ± 0.2 under setting [1] and 5.05 ± 0.16 under setting [2].

For the sequence RQKGTGKEYAAKFIKKRRLSSSRR [DAPK3], the protein stability index runs as follows: under setting [1], 4.2 ± 0.24; under setting [2], 4.5 ± 0.29.

With RQKIWNNMPKDHPVSCCLGLLLES [DYNC2LI1], the protein stability index was determined as 2.25 ± 0.23 under setting [1] and 2.34 ± 0.28 under setting [2].

RQPVSFHRVKLTNSTLDPHGHLIL [TBX6]: the protein stability index stood at 2.27 ± 0.16 under setting [1] and 2.27 ± 0.34 under setting [2].

For the sequence RQRSSLAKINIVYQELNYRSVEEA [SCNN1D], the protein stability index is, setting by setting: under setting [1], 3.41 ± 0.24; under setting [2], 3.44 ± 0.22.

Consider RQVVQDLLKAGAEVNVLNDMRDTP [OSBPL1A], for which the protein stability index was determined as 4.45 ± 0.21 under setting [1] and 4.24 ± 0.25 under setting [2].

Turning to RRENSTLDVECHEKEKHVNQLQTK [SASS6], the protein stability index worked out at 5.13 ± 0.11 under setting [1] and 5.26 ± 0.23 under setting [2].

In the case of RRFQQTQYLALPERAELAASLGLT [DLX1], the protein stability index under setting [1] turned out to be 2.95 ± 0.21 and the protein stability index under setting [2] amounted to 3.12 ± 0.099.

On to RRITYLQNPKDCSKAKKLVCNINK [FUT8], for which the protein stability index stood at 2.77 ± 0.28 under setting [1] and 3.05 ± 0.26 under setting [2].

RRRIEEERLRLEQQKQQIMAALNS [ACBD3]: the protein stability index by setting is: under setting [1], 4.05 ± 0.14; under setting [2], 4.58 ± 0.2.

Sequence RRSISSSRSENVLSRLSLMAMPNG [PSD2] displayed a protein stability index under setting [1] of 3.54 ± 0.17 and a protein stability index under setting [2] of 3.56 ± 0.19.

Regarding RRSQQQQVPVVDFQAELRQAFLAE [SNURF], the protein stability index is 3.84 ± 0.37 under setting [1] and 3.86 ± 0.28 under setting [2].

Regarding RSGIQFGSWGSFQLPGLLNFGEFK [CLCN6], the protein stability index was found to be 2.29 ± 0.26 under setting [1] and 2.4 ± 0.3 under setting [2].

Take RVKLEEDPDGEEGSSIPWNHLPDP [ZNF24]: the protein stability index runs as follows: under setting [1], 5.18 ± 0.2; under setting [2], 5.19 ± 0.17.

For RYPVCKFPSLQVTAILIECGADVN [FEM1C], the protein stability index stood at 2.71 ± 0.72 under setting [1] and 2.65 ± 0.61 under setting [2].

Regarding SAAWMKERTSPGAIHYCASTSEES [SPDEF], the protein stability index is, setting by setting: under setting [1], 4.66 ± 0.13; under setting [2], 4.72 ± 0.3.

On to SALASDRFNLILADTNSDRLFTVN [DCAF4], for which the protein stability index by setting is: under setting [1], 2.61 ± 0.18; under setting [2], 2.69 ± 0.32.

For the sequence SASDGSSFVVARYFPAGNVVNEGF [GLIPR2], the protein stability index is, setting by setting: under setting [1], 2.58 ± 0.29; under setting [2], 2.58 ± 0.35.

As for SCKADVVELLLSHADCDRRSRIEA [FEM1B], the protein stability index is, setting by setting: under setting [1], 2.42 ± 0.17; under setting [2], 2.65 ± 0.29.

On to SCSQGSGILHYAHGDSQQTHLLKQ [CRY1], for which the protein stability index by setting is: under setting [1], 3.29 ± 0.16; under setting [2], 3.31 ± 0.2.

For SDDFCTFQMVLEGGVCCTVTLNFN [GFOD1], the protein stability index by setting is: under setting [1], 2.79 ± 0.48; under setting [2], 3.02 ± 0.29.

In the case of SDLGFEVKCFNDLKAEELLLKIHE [CASP6], the protein stability index amounted to 2.48 ± 0.28 under setting [1] and 2.69 ± 0.37 under setting [2].

SDQETLRIHERLVAGSLAGAIAQS [SLC25A25]: the protein stability index by setting is: under setting [1], 3.87 ± 0.18; under setting [2], 3.8 ± 0.43.

Take SEKKTISFQGCMAQLFMDHLFAGA [OR4A15]: the protein stability index runs as follows: under setting [1], 2.56 ± 0.73; under setting [2], 2.66 ± 0.79.

Consider SELQKELKKVKTAHSNDGDCKTQ [DPCD], for which the protein stability index reads like this: (treatment: DMSO, c terminus: native) 4.94 ± 0.27; (treatment: MLN4924 1 uM, 8 h, c terminus: native) 5.28 ± 0.14.

As to SELTSLCQSVLEDFNLCLFYLPSS [SMG5], the protein stability index was 2.65 ± 0.64 under setting [1] and 2.42 ± 0.39 under setting [2].

Take SEQCYYIFGDLCGNMANLSLHDHD [DVL3]: the protein stability index by setting is: under setting [1], 2.96 ± 0.19; under setting [2], 2.91 ± 0.27.

In the case of SESGSLGNSSGSDVTSLSSQLPDT [ISL2], the protein stability index runs as follows: under setting [1], 5.43 ± 0.056; under setting [2], 5.41 ± 0.14.

Turning to SFRGAFSNSEKAKNIFRIRFHDPS [NET1], the protein stability index by setting is: under setting [1], 2.59 ± 0.34; under setting [2], 2.65 ± 0.12.

Consider SGAFQWEELEEDIRKKLKDSGDVS [RHOBTB3], for which the protein stability index was 5.17 ± 0.27 under setting [1] and 5.2 ± 0.34 under setting [2].

With SGGGGSSSNFHINVEESVDGQVVS [KRT15], the protein stability index runs as follows: under setting [1], 5.26 ± 0.1; under setting [2], 5.21 ± 0.26.

Turning to SGGPPPKRSAPSGPVRSSSGMGGR [RBMX], the protein stability index by setting is: under setting [1], 4.59 ± 0.29; under setting [2], 4.51 ± 0.21.

Consider SGLGYIAGSKVKDMAGDWHWALRV [SPNS1], for which the protein stability index reads like this: under setting [1], 2.64 ± 0.74; under setting [2], 2.38 ± 0.3.

In the case of SGSQMSHNAVTSHQRPGWPGQPHS [NCF4], the protein stability index was 3.95 ± 0.34 under setting [1] and 3.94 ± 0.29 under setting [2].

For SGSSYCSFPPSLSSSSSSSPTSGS [LURAP1L], the protein stability index amounted to 4.32 ± 0.13 under setting [1] and 4.42 ± 0.17 under setting [2].

Sequence SGTFAPISDRYSPELRQLVLSLLS [NEK8] displayed a protein stability index under setting [1] of 2.12 ± 0.21 and a protein stability index under setting [2] of 2.25 ± 0.38.

As to SHHHHQSRGACTSHDPQSSRGSRR [KCNA4], the protein stability index was determined as 5.11 ± 0.26 under setting [1] and 5.13 ± 0.15 under setting [2].

With SHLQAAAQTPPRPGPPSAPPPPPK [SCNN1D], the protein stability index was 5.09 ± 0.26 under setting [1] and 5.22 ± 0.14 under setting [2].

For SIKGSSGLGGGSSRTSCRLSGGLG [KRT17], the protein stability index amounted to 3.39 ± 0.19 under setting [1] and 3.42 ± 0.28 under setting [2].

In the case of SITVSKVDKDQPSILNSCEDPVPG [FBXO34], the protein stability index is, setting by setting: under setting [1], 5.25 ± 0.22; under setting [2], 5.25 ± 0.12.

Regarding SKPSSDLLDLQPDFSSGGAAAAAA [SNAP91], the protein stability index runs as follows: under setting [1], 4.99 ± 0.37; under setting [2], 5.027 ± 0.049.

For the sequence SKSSHPLIRSLFHGFLFMIFQIGV [SOAT1], the protein stability index is 2.81 ± 0.84 under setting [1] and 2.72 ± 0.18 under setting [2].

For SLDWETFEQYCAWQLFLAHNIPLE [INTS3], the protein stability index runs as follows: under setting [1], 2.3 ± 0.43; under setting [2], 2.16 ± 0.32.

On to SLFVLDQNDNAPEILYPALPTDGS [PCDHGA10], for which the protein stability index reads like this: under setting [1], 3.69 ± 0.33; under setting [2], 3.84 ± 0.32.

For the sequence SLHKHLTIRLNISDVNDNAPRFNQ [PCDHGC5], the protein stability index runs as follows: under setting [1], 2.32 ± 0.34; under setting [2], 2.28 ± 0.27.

Regarding SLIPLILDLMKEWIAHSEKLPRKV [SPACA9], the protein stability index was 2.28 ± 0.46 under setting [1] and 2.02 ± 0.36 under setting [2].

Turning to SLLDELLEVDHIRTIYHMFIALLI [SOAT1], the protein stability index came out at 2.01 ± 0.27 under setting [1] and 2.11 ± 0.56 under setting [2].

In the case of SLSEALDLIESDPDAWCDLSKFDL [MYBL2], the protein stability index was determined as 3.61 ± 0.23 under setting [1] and 4.13 ± 0.56 under setting [2].

SLSFEDELVYADDYIMDEDQSKLA [ESRRG] showed a protein stability index under setting [1] of 5.43 ± 0.31 and a protein stability index under setting [2] of 5.41 ± 0.27.

Regarding SLSHSPGCSSTQGNGRPGRPSQYR [LCOR], the protein stability index by setting is: under setting [1], 4.44 ± 0.13; under setting [2], 4.67 ± 0.22.

On to SLSLFGCTNIFYEEENPGGCEDEY [ZER1], for which the protein stability index is, setting by setting: under setting [1], 3.97 ± 0.14; under setting [2], 4.06 ± 0.23.

As for SMPQKFLGDKGLSDTPYDSSASYE [IKZF1], the protein stability index is, setting by setting: under setting [1], 4.74 ± 0.088; under setting [2], 4.73 ± 0.34.

For SNPELDVLLLGSVDGRHLLRTLSR [DNAAF3], the protein stability index under setting [1] came out at 2.5 ± 0.28 and the protein stability index under setting [2] came out at 2.56 ± 0.32.

SNVKVETQSDEENGRACEMNGEEC [IKZF1] showed a protein stability index under setting [1] of 5.75 ± 0.27 and a protein stability index under setting [2] of 5.25 ± 0.36.

Turning to SPESESDHEHEEADLELSLPECLE [GNAS], the protein stability index reads like this: under setting [1], 5.4 ± 0.38; under setting [2], 5.57 ± 0.26.

On to SPIKKVRKSLALDIVDEDVKLMMS [MYBL2], for which the protein stability index was 3.6 ± 0.34 under setting [1] and 3.68 ± 0.43 under setting [2].

With SPMSAATLGGLNPSPSEVITPWTP [SMTNL2], the protein stability index under setting [1] is 4.44 ± 0.18 and the protein stability index under setting [2] came to 4.46 ± 0.28.

SPPLHANTSLHVFVLDENDNAPAV [PCDHGC5]: the protein stability index was found to be 3.94 ± 0.23 under setting [1] and 3.81 ± 0.45 under setting [2].

Take SQLRLVCKRMDLVCQRMLNQGFLK [FBXO28]: the protein stability index runs as follows: under setting [1], 2.38 ± 0.42; under setting [2], 2.46 ± 0.2.

Turning to SRGGPPPPPPPPHNSGPPPPPARG [WASL], the protein stability index is 5.13 ± 0.26 under setting [1] and 5.07 ± 0.07 under setting [2].

Consider SRGSRRRRRQRSEKKKAHYRQSSF [KCNA4], for which the protein stability index was determined as 4.6 ± 0.29 under setting [1] and 4.8 ± 0.17 under setting [2].

Regarding SRGSSVSMSGGRFRCPTCRHEVIM [TRIM63], the protein stability index under setting [1] was 2.43 ± 0.56 and the protein stability index under setting [2] came out at 2.4 ± 0.38.

In the case of SRKIAVEDENDLEELNNGEPQTEH [MIA2], the protein stability index by setting is: under setting [1], 5.61 ± 0.13; under setting [2], 5.37 ± 0.29.

As to SRRQEKSAGDADPENGEIKPASKP [ELOA2], the protein stability index under setting [1] was 5.53 ± 0.19 and the protein stability index under setting [2] worked out at 5.69 ± 0.1.

With SRSAILIQHRRTHTDSKYEHAIAE [ZNF396], the protein stability index by setting is: under setting [1], 3.63 ± 0.15; under setting [2], 3.72 ± 0.19.
